Here are results for 1 molecule from US20040053365A1 (LUDWIG INSTITUTE FOR CANCER RESEARCH, published 2004).

The experiment addresses T1, recombinant human GM-CSF (human, UniProt P04141 18-144).
T1 construct: also called rhGM-CSF
The experiment in a line: SPR, BIAcore 2000, 100 RU rhGM-CSF on chip, antibody 1-10 nM, Langmuir 1:1 model. (In general: In SPR one partner is held on a chip, and binding of the other changes the refractive index at the surface.)

T1 sequence (P04141 18-144 limits assumed): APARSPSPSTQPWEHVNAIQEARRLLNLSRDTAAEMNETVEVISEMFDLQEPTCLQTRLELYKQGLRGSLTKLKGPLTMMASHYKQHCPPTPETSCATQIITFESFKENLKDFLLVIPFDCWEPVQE

B1: chimeric 19/2 anti-human GM-CSF monoclonal antibody (antibody, V domains shown)
VH: EVQLQQSGPELVKPGASVKISCKASGYTFTDYNIHWVKQSHGKSLDWIGYIAPYSGGTGYNQEFKNRATLTVDKSSSTAYMELRSLTSDDSAVYYCARRDRFPYFDYWGQGTTLRVSS
VL: DIVMIQSQKFVSTSVGDRVNITCKASQNVGSNVAWLQQKPGQSPKTLIYSASYRSGRVPDRFTGSGSGTDFILTITTVQSEDLAEYFCQQFNRSPLTFGSGTKLELKR
On to B1, for which the kon is 510000 M⁻¹ s⁻¹.

As a reminder, the kon is a measure of how fast the partners come together.
